PMC5524369
pKd: −log10 of the molar value. Each block holds one substance with its values, some of them ahead of it.

Assays:
[1] = molecular target: complement factor H (Homo sapiens) (UniProt P08603); assay: SPR; settings: cited from earlier work
C1q (Homo sapiens) = C1q (Homo sapiens) (UniProt P02745); settings: cited from earlier work
[2] = molecular target: Tamm-Horsfall protein (human) (UniProt P07911); assay: ELISA; wells coated with 25 μg/ml THP; C3b 1 to 250 μg/ml in 20 mM Tris/20 mM NaCl/0.05% Tween 20 (pH 7.5) without BSA, overnight, 4°C; detected with goat anti-human C3b; fitted to B = (F × Cap)/(KD + F)
[3] = molecular target: Tamm-Horsfall protein (human) (UniProt P07911); assay: ELISA; wells coated with 25 μg/ml THP; CFH 10 to 250 μg/ml in 1% BSA/20 mM Tris/20 mM NaCl/0.05% Tween 20 (pH 7.5), overnight, 4°C; detected with goat anti-human CFH; fitted to B = (F × Cap)/(KD + F)
[4] = molecular target: Tamm-Horsfall protein (human) (UniProt P07911); assay: as above; remark: listed apart in the source

complement factor H, sequence (P08603 19-1231): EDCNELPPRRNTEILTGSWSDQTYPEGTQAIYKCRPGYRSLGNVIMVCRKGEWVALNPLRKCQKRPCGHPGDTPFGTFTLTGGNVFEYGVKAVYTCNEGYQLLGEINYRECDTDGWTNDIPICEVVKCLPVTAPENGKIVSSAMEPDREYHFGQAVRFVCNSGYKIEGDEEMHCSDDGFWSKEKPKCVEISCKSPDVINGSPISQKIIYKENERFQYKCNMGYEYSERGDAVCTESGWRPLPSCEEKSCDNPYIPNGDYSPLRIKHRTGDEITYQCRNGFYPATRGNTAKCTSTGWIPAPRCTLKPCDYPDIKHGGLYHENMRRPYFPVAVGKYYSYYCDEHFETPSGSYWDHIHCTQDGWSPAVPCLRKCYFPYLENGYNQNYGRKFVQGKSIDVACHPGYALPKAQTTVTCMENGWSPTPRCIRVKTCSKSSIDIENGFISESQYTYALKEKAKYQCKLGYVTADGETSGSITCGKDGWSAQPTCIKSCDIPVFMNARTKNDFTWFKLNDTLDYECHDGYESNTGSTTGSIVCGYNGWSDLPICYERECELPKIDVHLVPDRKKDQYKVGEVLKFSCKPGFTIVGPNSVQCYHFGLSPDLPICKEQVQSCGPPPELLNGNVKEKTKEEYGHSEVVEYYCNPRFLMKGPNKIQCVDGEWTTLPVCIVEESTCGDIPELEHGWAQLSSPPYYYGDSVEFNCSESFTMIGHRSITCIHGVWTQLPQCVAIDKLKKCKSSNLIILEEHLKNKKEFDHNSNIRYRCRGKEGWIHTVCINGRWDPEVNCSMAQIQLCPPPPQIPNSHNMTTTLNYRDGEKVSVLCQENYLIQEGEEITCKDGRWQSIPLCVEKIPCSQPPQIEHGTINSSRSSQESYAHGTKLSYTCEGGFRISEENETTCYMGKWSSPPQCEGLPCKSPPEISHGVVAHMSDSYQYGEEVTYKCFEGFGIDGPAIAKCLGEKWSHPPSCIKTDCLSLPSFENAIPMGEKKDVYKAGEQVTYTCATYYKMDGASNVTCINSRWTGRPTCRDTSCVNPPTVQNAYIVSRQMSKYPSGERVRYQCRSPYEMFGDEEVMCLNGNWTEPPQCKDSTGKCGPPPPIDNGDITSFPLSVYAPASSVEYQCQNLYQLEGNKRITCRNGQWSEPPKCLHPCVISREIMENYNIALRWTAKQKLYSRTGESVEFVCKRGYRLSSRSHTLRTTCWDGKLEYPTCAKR
C1q (Homo sapiens), sequence (P02745 23-245, chain 1 of 3): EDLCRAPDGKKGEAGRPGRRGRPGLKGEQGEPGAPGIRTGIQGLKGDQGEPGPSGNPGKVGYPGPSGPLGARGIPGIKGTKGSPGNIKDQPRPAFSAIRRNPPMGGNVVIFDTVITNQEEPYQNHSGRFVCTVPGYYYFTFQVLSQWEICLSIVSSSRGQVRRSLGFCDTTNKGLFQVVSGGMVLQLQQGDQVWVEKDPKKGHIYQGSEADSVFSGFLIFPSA
C1q (Homo sapiens), sequence (P02746 28-253, chain 2 of 3, further chain): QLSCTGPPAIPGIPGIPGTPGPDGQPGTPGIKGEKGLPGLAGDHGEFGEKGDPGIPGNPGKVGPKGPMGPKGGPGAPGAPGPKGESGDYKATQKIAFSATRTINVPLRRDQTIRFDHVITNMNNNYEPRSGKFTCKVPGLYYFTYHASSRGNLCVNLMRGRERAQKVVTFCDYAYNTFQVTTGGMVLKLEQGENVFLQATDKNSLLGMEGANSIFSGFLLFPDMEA
C1q (Homo sapiens), sequence (P02747 29-245, chain 3 of 3, further chain): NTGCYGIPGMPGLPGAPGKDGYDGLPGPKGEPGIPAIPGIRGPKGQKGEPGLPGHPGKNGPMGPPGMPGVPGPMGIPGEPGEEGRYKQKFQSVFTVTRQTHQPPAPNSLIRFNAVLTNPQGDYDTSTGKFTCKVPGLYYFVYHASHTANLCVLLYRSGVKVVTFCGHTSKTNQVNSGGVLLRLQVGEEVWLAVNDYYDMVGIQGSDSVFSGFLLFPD
complement factor H (Homo sapiens), sequence (P08603 19-1231): as the sequence (P08603 19-1231) above

Substance: THP (uromodulin) (from UniProt P07911)
pKd [1]: 5.40
pKd (C1q (Homo sapiens)): 9.00

pKd [2]: 7.30
Substance: complement 3b (from UniProt P01024 749-1663; P01024 749-1663) (natural protein)

pKd [3]: 6.00
pKd [4]: 5.92
Substance: complement factor H (from UniProt P08603 19-1231) (natural protein)
